Biological target: T1, human ROR1 expressed on cells (MDA-MB-231, JIMT-1, CLL patient cells) (human, UniProt Q01973 30-937)
T1 construct: whole, on cells; also called hROR1; plasma-membrane human ROR1
Assay: flow cytometry on MDA-MB-231 cells

T1 sequence (Q01973 30-937): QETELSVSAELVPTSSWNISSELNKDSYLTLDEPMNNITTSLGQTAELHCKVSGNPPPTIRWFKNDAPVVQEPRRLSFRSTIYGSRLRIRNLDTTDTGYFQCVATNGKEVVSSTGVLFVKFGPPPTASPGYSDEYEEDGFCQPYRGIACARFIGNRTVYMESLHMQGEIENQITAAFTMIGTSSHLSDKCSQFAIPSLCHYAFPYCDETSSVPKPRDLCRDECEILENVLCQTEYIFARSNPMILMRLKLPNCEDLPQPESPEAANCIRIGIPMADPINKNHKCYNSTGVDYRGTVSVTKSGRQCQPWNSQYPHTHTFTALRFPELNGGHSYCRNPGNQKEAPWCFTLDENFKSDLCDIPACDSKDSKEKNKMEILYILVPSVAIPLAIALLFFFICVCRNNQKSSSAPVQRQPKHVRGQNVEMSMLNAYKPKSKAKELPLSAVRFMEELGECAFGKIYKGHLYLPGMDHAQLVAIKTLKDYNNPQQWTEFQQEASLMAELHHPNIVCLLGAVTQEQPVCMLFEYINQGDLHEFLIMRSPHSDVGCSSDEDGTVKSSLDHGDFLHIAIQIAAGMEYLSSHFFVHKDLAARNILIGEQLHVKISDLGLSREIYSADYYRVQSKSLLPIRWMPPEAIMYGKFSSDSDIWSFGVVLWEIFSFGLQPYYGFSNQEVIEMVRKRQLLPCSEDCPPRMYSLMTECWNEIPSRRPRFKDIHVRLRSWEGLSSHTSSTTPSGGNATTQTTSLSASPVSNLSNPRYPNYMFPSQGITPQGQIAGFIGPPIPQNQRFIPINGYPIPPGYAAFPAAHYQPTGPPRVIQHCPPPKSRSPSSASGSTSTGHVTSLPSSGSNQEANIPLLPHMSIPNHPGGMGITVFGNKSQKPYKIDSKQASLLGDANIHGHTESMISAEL

B1: PRO2060 (scFv, V domains shown)
VH: QSQVVESGGGLVQPGGSLRLSCAVSGFDLSSYAVSWVRQAPGKGLEWIGIIYPRANTYYASWAKGRFTISKDNSKNTVYLQMNSLRAEDTAVYFCARDRYDSGAYLYTTYFNLWGQGTLVTVSS
VL: DVQMTQSPSSLSASVGDRVTITCRASENIYSGLAWYQQKPGKPPKLLIYRASTLASGVSSRFSGSGSGTDFTLTISSLQPEDFATYYCQGGYYSSSSTYIAFGTGTKVTVLG
fold lower apparent binding affinity than reference Fab PRO2213: ~3 fold

B2: PRO2062 (scFv, V domains shown)
VH: QSQLVESGGGLVQPGGSLRLSCAVSGLSLSRNAMSWVRQAPGKGLEWIGIILTSGSTYYASWAKGRFTISKDNSKNTVYLQMNSLRAEDTAVYFCVRGIASSSLKSFWGQGTLVTVSS
VL: AQQLTQSPSSLSASVGDRVTITCQASQNVWNNNYLSWFQQKPGKPPKLLIVTASTLASGVSSRFSGSGSGTDFTLTISSLQPEDFATYYCAGGFSGEIRAFGTGTKVTVLG
fold higher apparent binding affinity than reference Fab PRO2213: ~3 fold

B3: PRO2271 (scFv, V domains shown)
VH: QSQLVESGGGLVQPGGSLRLSCAVSGIDLSRNAMSWVRQAPGKGLEWIGIILTSGSTYYASWAKGRFTISKTSTTLDLQMNSLRAEDTAVYFCVRGIASSSLKSFWGQGTLVTVSS
VL: B2 VL
fold lower apparent binding affinity than original scFv PRO2062: ~2 fold

— patent CN117043185A (NUMAB INNOVATION AG, dated 2023)
